Like-named read-outs stand apart in the source and are kept apart here.
Columns and labels:
[1] = biological target: T1, EBOV sGP (soluble glycoprotein) (Zaire ebolavirus (EBOV), UniProt P60170 33-324); assay: filter binding; 50 and 500 nM sGP; details: protein: recombinant; tags: 6xHis; chain copies: 2; label: 32P; 3' stem loop of 5183
[2] = biological target: T1, EBOV sGP (soluble glycoprotein); assay: filter binding; 50 and 500 nM sGP; better than 5183; details: protein: recombinant; tags: 6xHis; chain copies: 2; label: 32P; central bulge of 5183 removed
[3] = biological target: T1, EBOV sGP (soluble glycoprotein); assay: filter binding; details: protein: recombinant, tags: 6xHis, chain copies: 2
[4] = biological target: T1, EBOV sGP (soluble glycoprotein); assay: competition; 100-fold excess competes with 39SGP1A; details: protein: recombinant; tags: 6xHis; chain copies: 2; label: 32P (direct); hairpins (Mfold)
[5] = biological target: T1, EBOV sGP (soluble glycoprotein); assay: filter binding; monomer basis; details: protein: recombinant; tags: 6xHis; chain copies: 2; label: 32P; hairpins (Mfold)
Human serum albumin = Human serum albumin (Homo sapiens (Human), UniProt P02768 25-609); assay: filter; PBS + 5 mM MgCl2 pH 7.4; details: label: 32P
[6] = biological target: T1, EBOV sGP (soluble glycoprotein); assay: filter binding; up to 800 nM sGP; details: protein: recombinant; tags: 6xHis; chain copies: 2; label: 32P; hairpins (Mfold)
fibrinogen = fibrinogen (UniProt P02671;P02675;P02679 20-866;31-491;27-453); assay: filter binding; 250 nM to 4 uM fibrinogen; Buffer A: 137 mM NaCl, 2.7 mM KCl, 10 mM Na2HPO4, 2 mM KH2PO4, 5 mM MgCl2, pH 7.4, RT (23-24 C), 30 min; details: protein: commercial; chain copies: 2;2;2; label: 32P; hairpin
[7] = biological target: T1, EBOV sGP (soluble glycoprotein); assay: filter binding; monomer basis; Fig S8 legend uses 50 nM; details: protein: recombinant; tags: 6xHis; chain copies: 2; label: 32P; hairpin
SUDV sGP = biological target: T2, SUDV sGP (Sudan virus (SUDV), UniProt Q7T9E0 33-324); assay: filter binding; monomer basis; details: protein: commercial; chain copies: 2; label: 32P; hairpin
T2 sequence: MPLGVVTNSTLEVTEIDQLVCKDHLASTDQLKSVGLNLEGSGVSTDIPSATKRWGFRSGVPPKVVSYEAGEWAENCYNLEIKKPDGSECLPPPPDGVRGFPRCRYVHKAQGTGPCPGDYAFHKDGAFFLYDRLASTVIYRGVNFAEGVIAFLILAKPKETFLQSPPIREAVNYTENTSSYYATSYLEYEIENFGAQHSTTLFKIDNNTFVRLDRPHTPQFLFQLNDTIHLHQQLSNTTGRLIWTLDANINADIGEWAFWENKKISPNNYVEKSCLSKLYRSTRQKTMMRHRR

alpha2-macroglobulin = biological target: T3, alpha2-macroglobulin (UniProt P01023 24-1474); assay: filter binding; 205 nM to 5 uM alpha2-macroglobulin; Buffer A: 137 mM NaCl, 2.7 mM KCl, 10 mM Na2HPO4, 2 mM KH2PO4, 5 mM MgCl2, pH 7.4, RT (23-24 C), 30 min; details: protein: commercial; label: 32P; hairpin
T3 sequence: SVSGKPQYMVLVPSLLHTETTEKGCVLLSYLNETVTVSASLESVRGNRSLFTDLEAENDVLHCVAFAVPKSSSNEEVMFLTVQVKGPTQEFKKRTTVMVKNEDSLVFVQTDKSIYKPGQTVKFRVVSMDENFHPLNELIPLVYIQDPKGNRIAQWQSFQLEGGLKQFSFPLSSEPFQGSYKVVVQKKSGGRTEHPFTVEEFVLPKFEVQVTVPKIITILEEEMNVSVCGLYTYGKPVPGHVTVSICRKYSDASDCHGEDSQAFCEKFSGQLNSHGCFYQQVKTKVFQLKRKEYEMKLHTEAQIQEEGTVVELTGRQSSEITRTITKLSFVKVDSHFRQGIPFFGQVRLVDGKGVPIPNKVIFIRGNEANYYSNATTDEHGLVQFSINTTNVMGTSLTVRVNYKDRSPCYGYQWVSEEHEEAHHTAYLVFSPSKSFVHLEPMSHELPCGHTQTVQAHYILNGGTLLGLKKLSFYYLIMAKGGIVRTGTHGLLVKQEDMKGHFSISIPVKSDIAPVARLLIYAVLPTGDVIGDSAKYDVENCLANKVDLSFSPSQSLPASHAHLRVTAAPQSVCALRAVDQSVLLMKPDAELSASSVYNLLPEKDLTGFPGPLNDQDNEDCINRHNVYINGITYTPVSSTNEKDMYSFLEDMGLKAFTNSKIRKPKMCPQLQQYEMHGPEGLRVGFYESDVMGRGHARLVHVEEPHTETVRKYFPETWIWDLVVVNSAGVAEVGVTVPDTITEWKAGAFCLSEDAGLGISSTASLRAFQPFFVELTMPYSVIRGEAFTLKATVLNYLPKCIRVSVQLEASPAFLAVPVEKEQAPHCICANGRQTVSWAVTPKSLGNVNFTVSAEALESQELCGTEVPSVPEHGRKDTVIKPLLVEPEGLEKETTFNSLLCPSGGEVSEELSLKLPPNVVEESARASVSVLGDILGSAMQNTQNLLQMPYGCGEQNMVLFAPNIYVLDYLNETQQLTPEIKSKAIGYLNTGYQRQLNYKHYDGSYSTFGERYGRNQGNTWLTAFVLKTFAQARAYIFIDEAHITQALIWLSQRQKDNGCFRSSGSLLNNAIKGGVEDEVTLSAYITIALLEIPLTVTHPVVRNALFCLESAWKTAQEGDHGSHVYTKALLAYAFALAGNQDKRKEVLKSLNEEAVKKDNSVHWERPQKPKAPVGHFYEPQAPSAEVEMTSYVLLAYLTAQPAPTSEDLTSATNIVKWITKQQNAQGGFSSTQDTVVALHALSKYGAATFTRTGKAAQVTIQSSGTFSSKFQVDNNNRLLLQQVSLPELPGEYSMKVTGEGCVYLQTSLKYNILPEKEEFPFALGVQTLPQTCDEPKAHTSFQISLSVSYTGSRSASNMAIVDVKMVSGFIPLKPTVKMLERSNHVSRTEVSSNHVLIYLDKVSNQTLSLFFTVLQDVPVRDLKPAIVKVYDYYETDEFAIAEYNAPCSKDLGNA

[8] = biological target: T1, EBOV sGP (soluble glycoprotein); details: protein: recombinant; tags: 6xHis; chain copies: 2

T1 sequence (P60170 33-324): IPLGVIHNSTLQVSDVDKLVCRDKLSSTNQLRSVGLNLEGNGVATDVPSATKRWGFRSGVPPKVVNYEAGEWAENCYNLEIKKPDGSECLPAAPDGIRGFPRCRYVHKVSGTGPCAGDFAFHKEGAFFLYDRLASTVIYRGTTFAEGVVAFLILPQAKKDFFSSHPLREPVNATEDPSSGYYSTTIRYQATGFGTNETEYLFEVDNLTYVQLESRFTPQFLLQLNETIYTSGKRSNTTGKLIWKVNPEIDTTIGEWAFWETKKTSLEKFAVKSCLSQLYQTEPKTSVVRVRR
Chain of Human serum albumin (P02768 25-609): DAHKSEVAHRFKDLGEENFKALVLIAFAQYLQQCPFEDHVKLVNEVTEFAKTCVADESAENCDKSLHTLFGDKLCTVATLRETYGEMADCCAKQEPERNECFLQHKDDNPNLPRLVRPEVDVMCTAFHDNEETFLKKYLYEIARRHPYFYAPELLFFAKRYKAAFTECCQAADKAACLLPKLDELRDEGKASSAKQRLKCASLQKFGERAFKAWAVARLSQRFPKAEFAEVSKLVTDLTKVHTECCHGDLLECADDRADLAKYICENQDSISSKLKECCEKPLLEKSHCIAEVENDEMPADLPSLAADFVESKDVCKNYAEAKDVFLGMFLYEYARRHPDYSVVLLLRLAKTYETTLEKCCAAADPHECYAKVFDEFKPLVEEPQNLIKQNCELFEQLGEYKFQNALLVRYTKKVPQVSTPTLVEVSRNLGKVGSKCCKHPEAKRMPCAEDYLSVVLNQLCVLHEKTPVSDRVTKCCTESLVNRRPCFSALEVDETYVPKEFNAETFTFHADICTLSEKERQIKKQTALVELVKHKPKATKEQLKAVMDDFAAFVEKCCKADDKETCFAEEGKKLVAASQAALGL
Chain of fibrinogen (P02671 20-866, chain 1 of 3): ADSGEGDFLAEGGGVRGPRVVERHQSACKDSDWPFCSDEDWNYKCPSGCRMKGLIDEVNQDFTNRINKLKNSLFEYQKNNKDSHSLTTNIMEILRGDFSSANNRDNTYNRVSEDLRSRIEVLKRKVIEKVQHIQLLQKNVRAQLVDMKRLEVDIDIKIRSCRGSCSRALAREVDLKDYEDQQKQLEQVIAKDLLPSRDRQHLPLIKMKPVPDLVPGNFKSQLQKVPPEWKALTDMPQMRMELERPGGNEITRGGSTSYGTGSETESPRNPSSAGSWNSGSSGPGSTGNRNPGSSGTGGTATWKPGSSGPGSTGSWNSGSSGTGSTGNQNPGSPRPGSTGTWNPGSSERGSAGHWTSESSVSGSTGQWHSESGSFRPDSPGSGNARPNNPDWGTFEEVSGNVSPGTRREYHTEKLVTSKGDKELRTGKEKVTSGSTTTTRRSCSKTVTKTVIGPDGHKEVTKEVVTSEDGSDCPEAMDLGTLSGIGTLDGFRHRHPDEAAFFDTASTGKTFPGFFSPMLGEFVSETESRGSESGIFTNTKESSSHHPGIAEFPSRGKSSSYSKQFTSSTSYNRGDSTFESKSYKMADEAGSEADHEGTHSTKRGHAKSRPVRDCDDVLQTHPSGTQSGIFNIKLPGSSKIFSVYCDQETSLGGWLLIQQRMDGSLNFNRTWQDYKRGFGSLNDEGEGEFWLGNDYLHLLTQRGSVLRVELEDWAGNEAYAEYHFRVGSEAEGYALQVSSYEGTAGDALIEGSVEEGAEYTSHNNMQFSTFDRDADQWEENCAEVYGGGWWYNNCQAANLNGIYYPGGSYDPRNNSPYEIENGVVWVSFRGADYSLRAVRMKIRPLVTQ
Chain of fibrinogen (P02675 31-491, chain 2 of 3): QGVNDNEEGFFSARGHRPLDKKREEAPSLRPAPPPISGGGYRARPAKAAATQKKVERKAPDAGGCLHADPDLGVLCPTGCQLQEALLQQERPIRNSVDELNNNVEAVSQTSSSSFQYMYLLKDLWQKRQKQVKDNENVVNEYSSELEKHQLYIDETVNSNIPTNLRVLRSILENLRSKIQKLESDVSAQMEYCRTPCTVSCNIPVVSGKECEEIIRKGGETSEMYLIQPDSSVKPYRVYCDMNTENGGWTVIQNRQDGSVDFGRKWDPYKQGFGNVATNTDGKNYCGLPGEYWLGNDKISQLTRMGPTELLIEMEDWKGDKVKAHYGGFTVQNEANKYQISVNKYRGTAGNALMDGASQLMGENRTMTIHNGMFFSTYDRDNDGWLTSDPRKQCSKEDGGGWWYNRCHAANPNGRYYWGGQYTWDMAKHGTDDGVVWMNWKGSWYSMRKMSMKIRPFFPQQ
Chain of fibrinogen (P02679 27-453, chain 3 of 3): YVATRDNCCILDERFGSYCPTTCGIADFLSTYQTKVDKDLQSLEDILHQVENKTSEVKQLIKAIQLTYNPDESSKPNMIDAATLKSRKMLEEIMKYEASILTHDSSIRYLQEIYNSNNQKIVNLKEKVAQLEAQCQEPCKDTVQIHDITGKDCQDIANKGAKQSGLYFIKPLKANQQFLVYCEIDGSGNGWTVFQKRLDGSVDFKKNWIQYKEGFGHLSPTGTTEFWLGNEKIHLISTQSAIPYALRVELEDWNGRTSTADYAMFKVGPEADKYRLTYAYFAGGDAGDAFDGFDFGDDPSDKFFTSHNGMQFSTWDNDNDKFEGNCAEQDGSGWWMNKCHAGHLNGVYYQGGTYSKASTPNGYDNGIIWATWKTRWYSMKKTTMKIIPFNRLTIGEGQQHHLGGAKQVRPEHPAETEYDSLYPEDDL

B1: 5193 2'FY-RNA (XNA)
RNA: GGGAGACAAGAAUGAUACCCUGUUUCCUUGAGCUAUUCGACAGGAGGCUCACAACAGGC
modifications: 2'-F on all C and U
Question: Does B1 bind [1]?
Answer: no binding

B2: 5192 2'FY-RNA (XNA)
RNA: GGGAGACAUAAACGCUCAAUUUUUUAUUGCAUUUUUCUUUGAGCGUCAUUGUGUUUCCUUGAGCACUUCGACAGGAGGCUCACAACAGGC
modifications: 2'-F on all C and U
Question: Does B2 bind [2]?
Answer: binds

B3: 5179 2'FY-RNA (XNA)
RNA: GGGAGACAAGAAUAAACGCUCAAUCUUUUUAUUUUACUUUUUGUUGUAGAGCGCUUGUUUCUCUGAGUUGUAGCCAUUCGACAGGAGGCUCACAACAGGC
modifications: 2'-F on all C and U
Question: How did the Kd ([3]; label: 32P (direct)) turn out when B3 was run?
Answer: < 0.1 µM

B4: 4789 2'FY-RNA (XNA)
RNA: GGGAGACAAGAAUAAACGCUCAAACGUAAUGCAGUCUGUGAGCUUCAGCAAGUAAAAUUAGCGCUGACCGACCCUGUUCGACAGGAGGCUCACAACAGGC
modifications: 2'-F on all C and U
Question: Does B4 bind [4]?
Answer: binds

B5: 5183 2'FY-RNA (XNA)
RNA: GGGAGACAAGAAUAAACGCUCAAUUUUUUAUUGCAUUUUUCUUUGAGCGUCAUUGAUACCCUGUUUCCUUGAGCACUUCGACAGGAGGCUCACAACAGGC
modifications: 2'-F on all C and U; 2'-OH A and G
Question: With B5 as the binder, how does the Kd [5] read?
Answer: 0.054 µM

B6: 5183 2'OH RNA (structured_RNA)
RNA: GGGAGACAAGAAUAAACGCUCAAUUUUUUAUUGCAUUUUUCUUUGAGCGUCAUUGAUACCCUGUUUCCUUGAGCACUUCGACAGGAGGCUCACAACAGGC
modifications: none (2'-OH)
Question: Does B6 bind ([3]; label: 32P, hairpins (Mfold))?
Answer: no binding

B7: 5183 (ssRNA)
RNA: GGGAGACAAGAAUAAACGCUCAAUUUUUUAUUGCAUUUUUCUUUGAGCGUCAUUGAUACCCUGUUUCCUUGAGCACUUCGACAGGAGGCUCACAACAGGC
modifications: 2'-F pyrimidines
Question: For B7, which Kd (Human serum albumin) is on record?
Answer: 0.4 µM

B8: 2'FC-5183 (XNA)
RNA: GGGAGACAAGAAUAAACGCUCAAUUUUUUAUUGCAUUUUUCUUUGAGCGUCAUUGAUACCCUGUUUCCUUGAGCACUUCGACAGGAGGCUCACAACAGGC
modifications: 2'-F on C only; U is 2'-OH
Question: Does B8 bind [6]?
Answer: no binding

Question: Does GGGCGCUCAAUUUUUUAUUGCAUUUUUCUUUGAGCGCCC (XNA, 2'-F on all C and U) [39SGP1A (5199) 2'FY-RNA] bind (fibrinogen)?
Answer: no binding

Question: What about the Kd [7] of the same binder?
Answer: 0.027 µM

Question: And the Kd (SUDV sGP)?
Answer: 0.24 µM

Question: Does GGGCGCUCAAUUUUUUAUUGCAUUUUUCUUUGAGCGCCC (XNA, 2'-F on all C and U) [39SGP1A (5199) 2'FY-RNA] bind (alpha2-macroglobulin)?
Answer: no binding

Question: Which Kd (Human serum albumin) does the source give for GGGCGCUCAAUUUUUUAUUGCAUUUUUCUUUGAGCGCCC (ssRNA, 2'-F pyrimidines) [39SGP1A (5199)] here?
Answer: > 68 µM

B9: 4797 2'FY-RNA (XNA)
RNA: GGGAGACAAGAAUAAACGCUCAAAGCAACACAACGAGAUUAAACAAUCUAUUGUUAACAUUAAACAACUAGGCCGAUUCGACAGGAGGCUCACAACAGGC
modifications: 2'-F on all C and U
Question: Which Kd [8] does the source give for B9 here?
Answer: ~0.5 µM

B10: 5189 2'FY-RNA (XNA)
RNA: GGGAGACAAGAAUAAACGCUCAAUUUUUUAUUGCAUUUUUCUUUGAGCGUCAUUGAUACCCUGUUUCCU
modifications: 2'-F on all C and U
Question: Does B10 bind ([3]; label: 32P)?
Answer: binds

B11: 5182 2'FY-RNA (XNA)
RNA: GGGAGACAAGAAUAAACGCUCAAGUCUUUAUUUUUACACUUUUAUUUUACCUUGAGCUUCUUGACCAACAGUGCGCUUCGACAGGAGGCUCACAACAGGC
modifications: 2'-F on all C and U
Question: How did the Kd ([3]; label: 32P) turn out when B11 was run?
Answer: < 0.1 µM

From publication PMC6098113, “A 2′FY-RNA Motif Defines an Aptamer for Ebolavirus Secreted Protein”
